In PMC3624071 (Biochemistry, 2013):

Legend:
[1] = biological target: T1, EutB subunit of ethanolamine ammonia-lyase (EAL) from the EALH6 construct (S. typhimurium, UniProt P19264 1-453); experiment: pull-down
T1 sequence: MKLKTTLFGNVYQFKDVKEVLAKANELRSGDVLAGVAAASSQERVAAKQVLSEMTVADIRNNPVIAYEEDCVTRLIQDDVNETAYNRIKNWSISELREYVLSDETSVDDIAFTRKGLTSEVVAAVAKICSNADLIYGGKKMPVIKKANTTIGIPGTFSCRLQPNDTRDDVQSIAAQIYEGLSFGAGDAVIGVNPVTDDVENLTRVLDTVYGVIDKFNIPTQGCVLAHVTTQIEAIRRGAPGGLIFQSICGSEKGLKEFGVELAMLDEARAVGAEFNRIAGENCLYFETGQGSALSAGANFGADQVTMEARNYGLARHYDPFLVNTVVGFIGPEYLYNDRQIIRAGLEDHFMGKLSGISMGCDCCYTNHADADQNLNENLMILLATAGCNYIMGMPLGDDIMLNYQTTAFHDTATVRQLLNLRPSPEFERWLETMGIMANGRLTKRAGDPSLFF

[2] = biological target: T1, EutB subunit of ethanolamine …; experiment: pull-down; remark: listed apart in the source

B1: EutC subunit of ethanolamine ammonia-lyase (EAL) from the EALH6 construct (natural protein)
chain: MDQKQIEEIVRSVMASMGQDVPQPAAPSTQEGAKPQCAAPTVTESCALDLGSAEAKAWIGVENPHRADVLTELRRSTAARVCTGRAGPRPRTQALLRFLADHSRSKDTVLKEVPEEWVKAQGLLEVRSEISDKNLYLTRPDMGRRLSPEAIDALKSQCVMNPDVQVVVSDGLSTDAITANYEEILPPLLAGLKQAGLNVGTPFFVRYGRVKIEDQIGEILGAKVVILLVGERPGLGQSESLSCYAVYSPRVATTVEADRTCISNIHQGGTPPVEAAAVIVDLAKRMLEQKASGINMTR
[1]
  stoichiometry N: 1.01 mol EutC per mol EutB
[2]
  subunit molar ratio after elution with 250 mM imidazole: 0.32 mol EutC per mol EutB
